Assay results: article doi:10.1101/2021.12.10.472004 (bioRxiv, 2021)

What was measured:
[1] = molecular target: 20S proteasome (human (endogenous in red blood cells)) (UniProt P25786); experiment: negative stain electron microscopy
[2] = molecular target: the molecule itself; experiment: negative stain electron microscopy

Chain of 20S proteasome (human (endogenous in red blood cells)) (P25786 whole entry, looked up): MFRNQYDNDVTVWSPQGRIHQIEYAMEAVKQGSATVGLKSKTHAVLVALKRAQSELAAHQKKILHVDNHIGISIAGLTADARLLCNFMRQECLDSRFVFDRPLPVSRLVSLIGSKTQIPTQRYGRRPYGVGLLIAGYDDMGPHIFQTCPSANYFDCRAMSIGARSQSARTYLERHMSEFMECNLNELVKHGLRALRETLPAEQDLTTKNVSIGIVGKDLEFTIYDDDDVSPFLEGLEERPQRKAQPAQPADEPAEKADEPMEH

| percent of the observed proteasomes that were singly-capped 26S [1] [%] | Molecule | stoichiometry N [2] |
| --- | --- | --- |
| 6 | 19S regulatory cap of the proteasome (complex) |  |
|  | peroxiredoxin PRDX2 (enzyme, human (endogenous in red blood cells), UniProt P32119 1-198, looked up) MASGNARIGKPAPDFKATAVVDGAFKEVKLSDYKGKYVVLFFYPLDFTFVCPTEIIAFSNRAEDFRKLGCEVLGVSVDSQFTHLAWINTPRKEGGLGPLNIPLLADVTRRLSEDYGVLKTDEGIAYRGLFIIDGKGVLRQITVNDLPVGRSVDEALRLVQAFQYTDEHGEVCPAGWKPGSDTIKPNVDDSKEYFSKHN | 10 |
